Measured values as given in article PMC10042821 (2023).

B1: eukaryotic translation factor 5A-1 (eIF5A-1), residues 15-151 [human] / deoxyhypusine synthase, wild type, His-tagged [human] (parent complex)
chain 1: not shown
chain 2: MEGSLEREAPAGALAAVLKHSSTLPPESTQVRGYDFNRGVNYRALLEAFGTTGFQATNFGRAVQQVNAMIEKKLEPLSQDEDQHADLTQSRRPLTSCTIFLGYTSNLISSGIRETIRYLVQHNMVDVLVTTAGGVEEDLIKCLAPTYLGEFSLRGKELRENGINRIGNLLVPNENYCKFEDWLMPILDQMVMEQNTEGVKWTPSKMIARLGKEINNPESVYYWAQKNHIPVFSPALTDGSLGDMIFFHSYKNPGLVLDIVEDLRLINTQAIFAKCTGMIILGGGVVKHHIANANLMRNGADYAVYINTAQEFDGSDSGARPDEAVSWGKIRVDAQPVKVYADASLVFPLLVAETFAQKMDAFMHEKNED

Variants of: B1
Assay: MST; read off a plot

Point of comparison: chain 2 F272A, EC50 ~400 nM. Against it:
- chain 2 M244A — 30-fold higher, ~12000 nM
- chain 2 L295A — within 1.5-fold, ~300 nM
- chain 2 Y250A — 110-fold higher, ~45000 nM
- chain 2 S240A — 5-fold higher, ~2000 nM
- chain 2 Y176A — 1.8-fold higher, ~700 nM
- chain 2 I271A — 8-fold lower, ~50 nM
- chain 2 Q83A — 18-fold higher, ~7000 nM
- chain 2 N173A — 32-fold higher, ~13000 nM

Variants of: B1
Assay: MST; highest eIF5A concentration of the titration, est. 6e-5 M; read off a plot

For chain 2 F247A, the response was roughly 0.33 fraction bound.

Variants of: B1
Assay: MST; read off a plot
Remark: another data set of the same source

Point of comparison: chain 2 H288A, EC50 ~50 nM. Against it:
- chain 2 K329A — 2.6-fold higher, ~130 nM
- chain 2 W327A — 12-fold higher, ~600 nM
- chain 2 D243A — 10-fold higher, ~500 nM
- chain 2 E137A — within 1.5-fold, ~45 nM
